Results: article PMC7644609 (Proteins, 2020)

Target: the molecule itself
Assay: crystal structure

B1: dCaprin fragment (residues 187-309), dimerization domain of Drosophila melanogaster Caprin (domain or fragment)
chain: GPSSPSRKDNLAKTIAETAKIREVLIIQNVLNCFNDDQVRSDFLNGENGAKKLENTELELLEKFFIETQTRRPETADDVSFIATAQKSAELFYSTINARPKSFGEVSFEKLRSLFQQIQDSGYLDKYYL
modifications: Se-Met labelled (L-seleno-methionine in place of methionine) in the crystal used for the structure
For B1, the “stoichiometry N” value was 2.
